Paper PMC3437550

Molecular target: Torpedo californica nicotinic acetylcholine receptor (Torpedo californica) (UniProt P02710)
Experiment: SEC

- percent dimer: 72.7%
Substance: Torpedo californica nicotinic acetylcholine receptor (from UniProt P02710 25-461; P02712 25-493; P02714 18-506; P02718 22-522) (complex)
